Measured values reported in article PMC12432413.

Target: CP* (calprotectin, S100A8 C42S / S100A9 C3S heterodimer) (UniProt P05109)
Test: crystal structure; Ca2+-loaded CP* with 0.7 equivalents of Zn2+; 20 mM Tris pH 7.5, 100 mM NaCl, 2 mM MgCl2; hanging drop, 20°C, 1.0M sodium citrate (pH 5.2), 28% MPD; 1.87 Å

stoichiometry N: 2
Substance: CP* (calprotectin, S100A8 C42S / S100A9 C3S heterodimer) (from UniProt P05109 1-87; P06702 5-112) (complex)
